System: plasminogen

For “LMW-uPA-A279 (LMW-uPA with Cys279 to Ala279 replacement)”, the zymography was “the product shown to be active in zymography (data not shown)”.

From patent US20020106775
